{"source": "patent US20240294601A1", "key": {"DMF5 T cell receptor [1]": {"molecular_target": "DMF5 T cell receptor", "assay": "flow cytometry, barcoded tetramer library on Jurkat/MA cells transduced with DMF5"}, "DMF5 T cell receptor [2]": {"molecular_target": "DMF5 T cell receptor", "assay": "flow cytometry, tetramer titration on Jurkat T-cells transduced with DMF5"}}, "data": [{"substance": "MART-1/HLA-A*02:01 tetramer (from UniProt P61769 21-119) (peptide-MHC)", "values": [{"measurement": "percent of cells stained", "setting": "DMF5 T cell receptor [1]", "result": 33, "unit": "%"}, {"measurement": "fold improvement in EC50 relative to photo-exchanged tetramers", "setting": "DMF5 T cell receptor [2]", "result": 2.6, "unit": "fold"}]}]}
